Publication PMC10920655, “Identification and characterization of CIM-1, a carbapenemase that adds to the family of resistance factors against last resort antibiotics” (Communications Biology, 2024)
Converted amounts (≈) assume the structure as drawn.

How the values were obtained:
[1] = test system: T1, E. coli C41(DE3) with pET41a(+); experiment: microbe, parasite or virus in culture; set-up: species or system C. indologenes 3362; E. coli C41(DE3); Broth microdilution MIC, ISO 20776-1/EUCAST, cation-adjusted Mueller Hinton broth, after IPTG induction; details: Escherichia coli; empty vector pET41a(+), IPTG induced
T1 construct: C41(DE3) empty vector pET41a(+), control
Protocol: (§1) The in vitro minimum inhibitory concentration (MIC) of β-lactams including penicillins, cephalosporins, and carbapenems in C. indologenes 3362 and E. coli C41(DE3) carrying different constructs were determined using the broth microdilution assay according to the International Standard ISO 20776-1 as recommended by EUCAST (the European Committee on Antimicrobial Susceptibility Testing). Briefly, bacterial cultures were grown aerobically at 37 °C to an OD600 0.4–0.6 in the presence of 25 μg/mL kanamycin, when necessary, before 1 mM IPTG (isopropyl-β-d-thiogalactopyranoside) was added. The induction was allowed for 2 h at 37 °C before the bacterial culture was diluted to 4 × 10^6 CFU/mL, and the microbroth dilution assays were performed. Cation-adjusted Mueller Hinton (CAMH) broth was used. All assays were repeated at least four times on four different days with different batches of cells.

C. indologenes #3362 = test system: T2, C. indologenes #3362; experiment: microbe, parasite or virus in culture; set-up: species or system C. indologenes 3362; E. coli C41(DE3); Broth microdilution MIC, ISO 20776-1/EUCAST, cation-adjusted Mueller Hinton broth, after IPTG induction; details: Chryseobacterium indologenes; native isolate carrying IND-2 and CIM-1
T2 construct: 3362
Protocol: as §1

IND-2ΔSig [2] = molecular target: T3, IND-2ΔSig (Chryseobacterium indologenes, UniProt Q9ETN2); experiment: steady-state hydrolysis, UV absorbance […] nm, plate reader; type: biochemical; details: read-out: Km (μM) / IND-2ΔSig; 50 mM HEPES pH 7.0, 10 μM ZnSO4, 25 ± 2 °C, 100 nM enzyme
T3 construct: gene blaIND-2b
T3 sequence (Q9ETN2 entry or part of it, stated change not applied): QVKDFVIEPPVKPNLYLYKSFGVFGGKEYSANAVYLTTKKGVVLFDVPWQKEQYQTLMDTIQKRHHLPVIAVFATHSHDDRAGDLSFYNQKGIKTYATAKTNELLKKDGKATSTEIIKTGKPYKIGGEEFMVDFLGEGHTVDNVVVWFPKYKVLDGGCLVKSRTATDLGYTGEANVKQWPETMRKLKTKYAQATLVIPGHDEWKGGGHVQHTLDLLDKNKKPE

IND-2ΔSig [3] = molecular target: T3, IND-2ΔSig; experiment: steady-state hydrolysis, UV absorbance, plate reader; details: read-out: Km (μM) / IND-2ΔSig; 50 mM HEPES pH 7.0, 10 μM ZnSO4, 25 ± 2 °C, 100 nM enzyme
IND-2ΔSig [4] = molecular target: T3, IND-2ΔSig; experiment: steady-state hydrolysis, UV absorbance […] or […] nm, plate reader; details: read-out: Km (μM) / IND-2ΔSig; 50 mM HEPES pH 7.0, 10 μM ZnSO4, 25 ± 2 °C, 100 nM enzyme
NDM-4ΔSig = molecular target: T4, NDM-4ΔSig (Klebsiella pneumoniae, UniProt C7C422, M154L); experiment: steady-state hydrolysis, absorbance […] nm, plate reader; type: biochemical; details: read-out: Km (μM) / NDM-4ΔSig; 50 mM HEPES pH 7.0, 10 μM ZnSO4, 25 ± 2 °C, 100 nM enzyme
T4 construct: gene blaNDM-1
T4 sequence (C7C422 26-270 M154L): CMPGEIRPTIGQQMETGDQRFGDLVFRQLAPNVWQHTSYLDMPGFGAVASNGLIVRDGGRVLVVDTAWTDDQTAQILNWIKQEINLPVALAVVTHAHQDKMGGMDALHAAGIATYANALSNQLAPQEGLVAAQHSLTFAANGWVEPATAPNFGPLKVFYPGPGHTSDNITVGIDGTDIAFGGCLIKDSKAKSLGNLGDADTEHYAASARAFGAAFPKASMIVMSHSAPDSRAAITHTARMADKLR

[5] = test system: CO/N=C(\C(=O)N[C@@H]1C(=O)N2C(C(=O)[O-])=C(C[N+]3(C)CCCC3)CS[C@H]12)c1csc(N)n1; experiment: purified protein; details: 50 mM HEPES pH 7.0, 10 μM ZnSO4, 25 ± 2 °C, 100 nM enzyme, 25.0 °C
[6] = test system: O=C(Cc1cccs1)N[C@@H]1C(=O)N2C(C(=O)O)=C(/C=C/c3ccc([N+](=O)[O-])cc3[N+](=O)[O-])CS[C@H]12; experiment: purified protein; details: 50 mM HEPES pH 7.0, 10 μM ZnSO4, 25 ± 2 °C, 100 nM enzyme, 25.0 °C
[7] = test system: C[C@@H](O)[C@H]1C(=O)N2C(C(=O)O)=C(S[C@@H]3CN[C@H](C(=O)N(C)C)C3)[C@H](C)[C@H]12; experiment: purified protein; details: 50 mM HEPES pH 7.0, 10 μM ZnSO4, 25 ± 2 °C, 100 nM enzyme, 25.0 °C
[8] = test system: C[C@@H](O)[C@H]1C(=O)N2C(C(=O)O)=C(SCCN=CN)C[C@H]12; experiment: purified protein; details: 50 mM HEPES pH 7.0, 10 μM ZnSO4, 25 ± 2 °C, 100 nM enzyme, 25.0 °C
[9] = test system: C[C@@H](O)[C@H]1C(=O)N2C(C(=O)O)=C(S[C@@H]3CN[C@H](CNS(N)(=O)=O)C3)[C@H](C)[C@H]12; experiment: purified protein; details: 50 mM HEPES pH 7.0, 10 μM ZnSO4, 25 ± 2 °C, 100 nM enzyme, 25.0 °C
Description: steady-state hydrolysis, UV absorbance, plate reader on CIM-1ΔSig

[10] = test system: C[C@@H](O)[C@H]1C(=O)N2C(C(=O)O)=C(S[C@@H]3CN[C@H](C(=O)Nc4cccc(C(=O)O)c4)C3)[C@H](C)[C@H]12; experiment: purified protein; details: 50 mM HEPES pH 7.0, 10 μM ZnSO4, 25 ± 2 °C, 100 nM enzyme, 25.0 °C
[11] = test system: CC(C)(O/N=C(\C(=O)N[C@@H]1C(=O)N2C(C(=O)[O-])=C(C[n+]3ccccc3)CS[C@H]12)c1csc(N)n1)C(=O)O; experiment: purified protein; details: 50 mM HEPES pH 7.0, 10 μM ZnSO4, 25 ± 2 °C, 100 nM enzyme, 25.0 °C
[12] = test system: CO/N=C(\C(=O)N[C@@H]1C(=O)N2C(C(=O)[O-])=C(C[N+]3(C)CCCC3)CS[C@H]12)c1csc(N)n1; experiment: purified protein; type: biochemical, Klebsiella pneumoniae; details: 50 mM HEPES pH 7.0, 10 μM ZnSO4, 25 ± 2 °C, 100 nM enzyme, 25.0 °C
[13] = test system: C[C@@H](O)[C@H]1C(=O)N2C(C(=O)O)=C(S[C@@H]3CN[C@H](C(=O)N(C)C)C3)[C@H](C)[C@H]12; experiment: purified protein; type: biochemical, Klebsiella pneumoniae; details: 50 mM HEPES pH 7.0, 10 μM ZnSO4, 25 ± 2 °C, 100 nM enzyme, 25.0 °C
[14] = test system: C[C@@H](O)[C@H]1C(=O)N2C(C(=O)O)=C(SCCN=CN)C[C@H]12; experiment: purified protein; type: biochemical, Klebsiella pneumoniae; details: 50 mM HEPES pH 7.0, 10 μM ZnSO4, 25 ± 2 °C, 100 nM enzyme, 25.0 °C
[15] = test system: CC(C)(O/N=C(\C(=O)N[C@@H]1C(=O)N2C(C(=O)[O-])=C(C[n+]3ccccc3)CS[C@H]12)c1csc(N)n1)C(=O)O; experiment: purified protein; type: biochemical, Klebsiella pneumoniae; details: 50 mM HEPES pH 7.0, 10 μM ZnSO4, 25 ± 2 °C, 100 nM enzyme, 25.0 °C
[16] = test system: C[C@@H](O)[C@H]1C(=O)N2C(C(=O)O)=C(S[C@@H]3CN[C@H](CNS(N)(=O)=O)C3)[C@H](C)[C@H]12; experiment: steady-state hydrolysis, UV absorbance, plate reader; type: biochemical, Klebsiella pneumoniae; details: 50 mM HEPES pH 7.0, 10 μM ZnSO4, 25 ± 2 °C, 100 nM enzyme, 25.0 °C
Description: (§2) steady-state hydrolysis, UV absorbance, plate reader on NDM-4ΔSig

[17] = test system: C[C@@H](O)[C@H]1C(=O)N2C(C(=O)O)=C(S[C@@H]3CN[C@H](C(=O)Nc4cccc(C(=O)O)c4)C3)[C@H](C)[C@H]12; experiment: as above; type: biochemical, Klebsiella pneumoniae; details: 50 mM HEPES pH 7.0, 10 μM ZnSO4, 25 ± 2 °C, 100 nM enzyme, 25.0 °C
Description: as §2

Compound: Cc1nnc(SCC2=C(C(=O)O)N3C(=O)[C@@H](NC(=O)Cn4cnnn4)[C@H]3SC2)s1 [*Cefazolin (1st)]
- MIC [1]: 2 µg/mL (≈ 4.4 µM)
- MIC (C. indologenes #3362): 256 µg/mL (≈ 563 µM)

Compound: CO[C@@]1(NC(=O)Cc2cccs2)C(=O)N2C(C(=O)O)=C(COC(N)=O)CS[C@@H]21 [*Cefoxitin (2nd)]
- MIC [1]: 0.5 µg/mL (≈ 1.17 µM)
- MIC (C. indologenes #3362): 32 µg/mL (≈ 74.9 µM)

Compound: CC1(C)S[C@@H]2[C@H](NC(=O)[C@H](N)c3ccccc3)C(=O)N2[C@H]1C(=O)O [Ampicillin]
- MIC [1]: 4 µg/mL (≈ 11.4 µM)
- MIC (C. indologenes #3362): 512 µg/mL (≈ 1470 µM)

Compound: C[C@H]1[C@H](NC(=O)/C(=N\OC(C)(C)C(=O)O)c2csc(N)n2)C(=O)N1S(=O)(=O)O [Aztreonam]
- MIC [1]: < 0.02 µg/mL
- MIC (C. indologenes #3362): > 512 µg/mL

Compound: CO/N=C(\C(=O)N[C@@H]1C(=O)N2C(C(=O)[O-])=C(C[N+]3(C)CCCC3)CS[C@H]12)c1csc(N)n1 [Cefepime]
- MIC [1]: 0.031 µg/mL (≈ 0.0645 µM)
- MIC (C. indologenes #3362): 2 µg/mL (≈ 4.16 µM)

Compound: CC(C)(O/N=C(\C(=O)N[C@@H]1C(=O)N2C(C(=O)[O-])=C(C[n+]3ccccc3)CS[C@H]12)c1csc(N)n1)C(=O)O [Ceftazidime]
- Km (IND-2ΔSig [2]): > 1000 µM
- MIC [1]: 0.125 µg/mL (≈ 0.229 µM)
- MIC (C. indologenes #3362): 16 µg/mL (≈ 29.3 µM)

Compound: C[C@@H](O)[C@H]1C(=O)N2C(C(=O)O)=C(S[C@@H]3CN[C@H](CNS(N)(=O)=O)C3)[C@H](C)[C@H]12 [Doripenem]
- Km (IND-2ΔSig [3]): > 1000 µM
- MIC [1]: 0.063 µg/mL (≈ 0.15 µM)
- MIC (C. indologenes #3362): 128 µg/mL (≈ 304 µM)

Compound: C[C@@H](O)[C@H]1C(=O)N2C(C(=O)O)=C(S[C@@H]3CN[C@H](C(=O)Nc4cccc(C(=O)O)c4)C3)[C@H](C)[C@H]12 [Ertapenem]
- MIC [1]: 0.016 µg/mL (≈ 0.0336 µM)
- MIC (C. indologenes #3362): 64 µg/mL (≈ 135 µM)

Compound: C[C@@H](O)[C@H]1C(=O)N2C(C(=O)O)=C(SCCN=CN)C[C@H]12 [Imipenem]
- MIC [1]: 0.5 µg/mL (≈ 1.67 µM)
- MIC (C. indologenes #3362): 128 µg/mL (≈ 428 µM)

Compound: C[C@@H](O)[C@H]1C(=O)N2C(C(=O)O)=C(S[C@@H]3CN[C@H](C(=O)N(C)C)C3)[C@H](C)[C@H]12 [Meropenem]
- Km (IND-2ΔSig [4]): > 1000 µM
- MIC [1]: 0.031 µg/mL (≈ 0.0808 µM)
- MIC (C. indologenes #3362): 128 µg/mL (≈ 334 µM)

Compound: O=C(Cc1cccs1)N[C@@H]1C(=O)N2C(C(=O)O)=C(/C=C/c3ccc([N+](=O)[O-])cc3[N+](=O)[O-])CS[C@H]12 [Nitrocefin]
- Km (NDM-4ΔSig): 11 ± 1.8 µM

Compound: CIM-1ΔSig (Chryseobacterium indologenes)
- Km [5]: 538 ± 56 µM
- kcat [5]: 15.3 s⁻¹
- kcat/Km [5]: 28000 M⁻¹ s⁻¹
- Km [6]: 33 ± 6 µM
- kcat [6]: 2.8 s⁻¹
- kcat/Km [6]: 85000 M⁻¹ s⁻¹
- Km [7]: 143 ± 19 µM
- kcat [7]: 15 s⁻¹
- kcat/Km [7]: 100000 M⁻¹ s⁻¹
- Km [8]: 94 ± 7 µM
- kcat [8]: 8.5 s⁻¹
- kcat/Km [8]: 90000 M⁻¹ s⁻¹
- Km [9]: 175 ± 24 µM
- kcat [9]: 21 s⁻¹
- kcat/Km [9]: 120000 M⁻¹ s⁻¹
- Km [10]: 91 ± 11 µM
- kcat [10]: 9.2 s⁻¹
- kcat/Km [10]: 100000 M⁻¹ s⁻¹
- Km [11]: 324 ± 42 µM
- kcat [11]: 30 s⁻¹
- kcat/Km [11]: 93000 M⁻¹ s⁻¹

Compound: IND-2ΔSig (Chryseobacterium indologenes)
- Km [6]: 113 ± 6.9 µM
- kcat [6]: 78 s⁻¹
- kcat/Km [6]: 680000 M⁻¹ s⁻¹
- Km [8]: 728 ± 102 µM
- kcat [8]: 208 s⁻¹
- kcat/Km [8]: 290000 M⁻¹ s⁻¹
- Km [10]: 1069 ± 105 µM
- kcat [10]: 127 s⁻¹
- kcat/Km [10]: 120000 M⁻¹ s⁻¹

Compound: NDM-4ΔSig (Klebsiella pneumoniae; M154L)
- Km [12]: 136 ± 16 µM
- kcat [12]: 5.4 s⁻¹
- kcat/Km [12]: 40000 M⁻¹ s⁻¹
- Km [13]: 163 ± 22 µM
- kcat [13]: 25 s⁻¹
- kcat/Km [13]: 150000 M⁻¹ s⁻¹
- Km [14]: 151 ± 22 µM
- kcat [14]: 31 s⁻¹
- kcat/Km [14]: 210000 M⁻¹ s⁻¹
- Km [15]: 93 ± 14 µM
- kcat [15]: 6.3 s⁻¹
- kcat/Km [15]: 68000 M⁻¹ s⁻¹
- Km [16]: 253 ± 19 µM
- kcat [16]: 51 s⁻¹
- kcat/Km [16]: 200000 M⁻¹ s⁻¹
- Km [17]: 159 ± 22 µM
- kcat [17]: 17 s⁻¹
- kcat/Km [17]: 110000 M⁻¹ s⁻¹
